Experimental data from the supplement of paper PMC9112550, “Optimization of the antimicrobial peptide Bac7 by deep mutational scanning” (BMC Biology, 2022).

tested on: Escherichia coli TOP10; test: shrunken log2 fold change of peptide-encoding DNA abundance (4.5 h post-induction vs induction); higher = less antimicrobial activity (less host growth inhibition); conditions: time post-induction: 4.5 h; library: site-saturation at positions 5, 18, 19, 20
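Further: peptides expressed intracellularly from a pBAD plasmid library in pooled LB shake-flask culture, induced with 0.3% L-arabinose, DNA abundance read by NGS, three biological replicates, DESeq2 with apeglm shrinkage.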

Sequence	shrunken log2 fold change
RRIRMRPPRLPRPRPRPLLVPRP	0.199
RRIRMRPPRLPRPRPRPLLYPRP	0.0402
RRIRMRPPRLPRPRPRPLMAPRP	2.47
RRIRMRPPRLPRPRPRPLMPPRP	0.13
RRIRMRPPRLPRPRPRPLNIPRP	-0.163
RRIRMRPPRLPRPRPRPLNMPRP	-0.0641
RRIRMRPPRLPRPRPRPLNRPRP	0.0437
RRIRMRPPRLPRPRPRPLNYPRP	-0.124
RRIRMRPPRLPRPRPRPLQDPRP	2.56
RRIRMRPPRLPRPRPRPLSPPRP	0.345
RRIRMRPPRLPRPRPRPLVAPRP	1.16
RRIRMRPPRLPRPRPRPLWPPRP	0.616
RRIRMRPPRLPRPRPRPLWQPRP	0.304
RRIRMRPPRLPRPRPRPLWSPRP	-0.0373
RRIRMRPPRLPRPRPRPLWTPRP	0.261
RRIRMRPPRLPRPRPRPMAHPRP	-0.0858
RRIRMRPPRLPRPRPRPMAVPRP	-0.00104
RRIRMRPPRLPRPRPRPMCLPRP	0.292
RRIRMRPPRLPRPRPRPMCYPRP	0.0406
RRIRMRPPRLPRPRPRPMDNPRP	0.0672
RRIRMRPPRLPRPRPRPMDSPRP	0.0342
RRIRMRPPRLPRPRPRPMFFPRP	-0.0106
RRIRMRPPRLPRPRPRPMFIPRP	-0.403
RRIRMRPPRLPRPRPRPMFMPRP	0.0101
RRIRMRPPRLPRPRPRPMFVPRP	-0.298

Sequence	shrunken log2 fold change
RRIRMRPPRLPRPRPRPMGIPRP	-0.0393
RRIRMRPPRLPRPRPRPMGMPRP	-0.103
RRIRMRPPRLPRPRPRPMHEPRP	3.07
RRIRMRPPRLPRPRPRPMHGPRP	-0.0683
RRIRMRPPRLPRPRPRPMHRPRP	-0.156
RRIRMRPPRLPRPRPRPMHYPRP	-0.221
RRIRMRPPRLPRPRPRPMITPRP	-0.0461
RRIRMRPPRLPRPRPRPMKTPRP	-0.00191
RRIRMRPPRLPRPRPRPMLQPRP	0.196
RRIRMRPPRLPRPRPRPMNGPRP	0.0715
RRIRMRPPRLPRPRPRPMNSPRP	0.0624
RRIRMRPPRLPRPRPRPMPCPRP	-0.00548
RRIRMRPPRLPRPRPRPMPQPRP	4.29
RRIRMRPPRLPRPRPRPMQAPRP	3.02
RRIRMRPPRLPRPRPRPMQLPRP	0.33
RRIRMRPPRLPRPRPRPMTPPRP	0.582
RRIRMRPPRLPRPRPRPNCGPRP	-0.216
RRIRMRPPRLPRPRPRPNDRPRP	0.141
RRIRMRPPRLPRPRPRPNEMPRP	0.318
RRIRMRPPRLPRPRPRPNFDPRP	0.622
RRIRMRPPRLPRPRPRPNGFPRP	0.207
RRIRMRPPRLPRPRPRPNHAPRP	-0.113
RRIRMRPPRLPRPRPRPNHDPRP	-0.261
RRIRMRPPRLPRPRPRPNIPPRP	-0.207
RRIRMRPPRLPRPRPRPNKPPRP	-0.0387

Sequence	shrunken log2 fold change
RRIRMRPPRLPRPRPRPNMNPRP	-0.056
RRIRMRPPRLPRPRPRPNNNPRP	-0.134
RRIRMRPPRLPRPRPRPNPAPRP	0.201
RRIRMRPPRLPRPRPRPNPFPRP	0.211
RRIRMRPPRLPRPRPRPNPIPRP	0.188
RRIRMRPPRLPRPRPRPNQNPRP	0.079
RRIRMRPPRLPRPRPRPNQVPRP	-0.217
RRIRMRPPRLPRPRPRPNRKPRP	-0.0954
RRIRMRPPRLPRPRPRPNSKPRP	-0.129
RRIRMRPPRLPRPRPRPNTDPRP	-0.196
RRIRMRPPRLPRPRPRPNVGPRP	-0.0241
RRIRMRPPRLPRPRPRPNVVPRP	-0.0912
RRIRMRPPRLPRPRPRPNVYPRP	-0.368
RRIRMRPPRLPRPRPRPNWSPRP	-0.18
RRIRMRPPRLPRPRPRPNWTPRP	0.132
RRIRMRPPRLPRPRPRPNYKPRP	-0.504
RRIRMRPPRLPRPRPRPPACPRP	1.22
RRIRMRPPRLPRPRPRPPAHPRP	0.721
RRIRMRPPRLPRPRPRPPAMPRP	1.02
RRIRMRPPRLPRPRPRPPANPRP	1.17
RRIRMRPPRLPRPRPRPPARPRP	1.4
RRIRMRPPRLPRPRPRPPCFPRP	0.257
RRIRMRPPRLPRPRPRPPEGPRP	0.338
RRIRMRPPRLPRPRPRPPEQPRP	0.956
RRIRMRPPRLPRPRPRPPFMPRP	0.296
